# Source: US20200255483A1
# Tests used:
# [1] = target: RAS proteins (endogenous, in cells); test: cell-based or functional assay
# [2] = target: diphtheria toxin receptor (heparin-binding epidermal growth factor-like growth factor, HB-EGF) on Vero cells (UniProt Q09118); test: cell-based or functional assay
Substance,EC50 of loss of RAS proteins in HeLa cells (immunoblot) [1],potency of RAS loss in HeLa cells against RRSP-dta-dtB [1],"EC50 of inhibition of protein synthesis (3H-leucine incorporation) in Vero cells, in the presence of 1 nM nontoxic DT [2]","EC50 of inhibition of protein synthesis (3H-leucine incorporation) in Vero cells, without competitor [2]",EC50 of loss of total RAS proteins in HeLa cells after 24 h (immunoblot with anti-RAS antibody) [1]
RRSP-Δdta-dtB (enzyme),1 pM,300 fold,–,–,–
dtA-eGFP-dta-dtB,–,–,215 pM,3.8 pM,–
RRSP-dta-dtB (enzyme),–,–,–,–,250 pM
RRSP-APD-Δdta-dtB (enzyme),1 pM,300 fold,–,–,–
